Test results from PMC12331092 (2025).
Square brackets hold non-standard residues; d marks the D form. Ends that are not written are not given here. pT = C[C@@H](OP(=O)(O)O)[C@H](N)C(=O)O; pS = N[C@@H](COP(=O)(O)O)C(=O)O

Experiments:
[1] = molecular target: T1, Rattus norvegicus wild-type β-arrestin2 (Rattus norvegicus, UniProt P29067 1-410); assay: ITC; site I (KD1)
[2] = molecular target: T1, Rattus norvegicus wild-type β-arrestin2; assay: ITC; site II (KD2)

T1 sequence (P29067 whole entry): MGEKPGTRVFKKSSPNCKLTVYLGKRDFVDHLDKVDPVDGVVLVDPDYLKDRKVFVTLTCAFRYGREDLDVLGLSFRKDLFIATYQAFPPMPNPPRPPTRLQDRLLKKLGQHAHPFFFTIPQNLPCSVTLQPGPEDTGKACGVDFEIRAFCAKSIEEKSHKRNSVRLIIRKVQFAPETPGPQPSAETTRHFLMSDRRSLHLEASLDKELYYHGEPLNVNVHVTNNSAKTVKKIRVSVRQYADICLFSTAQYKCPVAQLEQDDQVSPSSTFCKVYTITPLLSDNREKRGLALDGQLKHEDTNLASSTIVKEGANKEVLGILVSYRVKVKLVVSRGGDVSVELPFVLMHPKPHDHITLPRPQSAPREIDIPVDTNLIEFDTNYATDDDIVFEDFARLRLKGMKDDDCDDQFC

Kd [1]: 79.9 nM | Kd [2]: 3320 nM
Binder: ASRV[pS]E[pT]EY[pS]ALEQ [C7pp2, phosphopeptide from the carboxyl terminus of CXCR7 (residues 346-359)]
